Biological target: biotin-Aβ42-oligomer (UniProt P05067)
Assay: binding of biotinylated ligand to transfected cells

| Binder | Kd [nM] |
| --- | --- |
| cellular Prion Protein (PrP^C), full-length mouse PrP expressed on COS-7 cells (receptor) not shown | 92 |
| Transmembrane protein 30B (TMEM30B) (natural protein) MTWSATARGAHQPDNTAFTQQRLPAWQPLLSASIALPLFFCAGLAFIGLGLGLYYSSNGIKELEYDYTGDPGTGNCSVCAAAGQGRALPPPCSCAWYFSLPELFQGPVYLYYELTNFYQNNRRYGVSRDDAQLSGLPSALRHPVNECAPYQRSAAGLPIAPCGAIANSLFNDSFSLWHQRQPGGPYVEVPLDRSGIAWWTDYHVKFRNPPLVNGSLALAFQGTAPPPNWRRPVYELSPDPNNTGFINQDFVVWMRTAALPTFRKLYARIRQGNYSAGLPRGAYRVNITYNYPVRAFGGHKLLIFSSISWMGGKNPFLGIAYLVVGSLCILTGFVMLVVYIRYQDQDDDDEE | 720 |
| Amyloid precursor-like protein 1 (APLP1) (natural protein) SLAGGSPGAAEAPGSAQVAGLCGRLTLHRDLRTGRWEPDPQRSRRCLRDPQRVLEYCRQMYPELQIARVEQATQAIPMERWCGGSRSGSCAHPHHQVVPFRCLPGEFVSEALLVPEGCRFLHQERMDQCESSTRRHQEAQEACSSQGLILHGSGMLLPCGSDRFRGVEYVCCPPPGTPDPSGTAVGDPSTRSWPPGSRVEGAEDEEEEESFPQPVDDYFVEPPQAEEEEETVPPPSSHTLAVVGKVTPTPRPTDGVDIYFGMPGEISEHEGFLRAKMDLEERRMRQINEVMREWAMADNQSKNLPKADRQALNEHFQSILQTLEEQVSGERQRLVETHATRVIALINDQRRAALEGFLAALQADPPQAERVLLALRRYLRAEQKEQRHTLRHYQHVAAVDPEKAQQMRFQVHTHLQVIEERVNQSLGLLDQNPHLAQELRPQIQELLHSEHLGPSELEAPAPGGSSEDKGGLQPPDSKDDTPMTLPKGSTEQDAASPEKEKMNPLEQYERKVNASVPRGFPFHSSEIQRDELAPAGTGVSREAVSGLLIMGAGGGSLIVLSMLLLRRKKPYGAISHGVVEVDPMLTLEEQQLRELQRHGYENPTYRFLEERP | 660 |
